In patent US20260226168A1:

B1: mu-128 (antibody, V domains shown)
VH: DVQLVESGGGLVQPGGSRKVSCAASGFTFSSFGMHWVRQAPEKGLEWVAYISRGSSTIYYADTVKGRFTISRDNPKNTLFLQMTSLRSEDTAMYYCARSGYGSSSYYFDYWGQGTTLTVSS
VL: ENVLTQSPAIMSASPREKVTMTCRASSSIRSSYLHWYQQKSGASPKLWIYSTSNLASGVPARFSGSGSGTSYSLTISSVEAEDAATYYCQQFSGYPLTFGGGTKLEIK
B2: mu-131 (antibody, V domains shown)
VH: EVQLQQSGPELVKPGASVKMSCKASGYTFTNYVMHWVKQKPGQGLEWIGYFNPYNDGTNYNEKFKGKATLTSDKSSNTAYMELSSLTSEDSAVYYCARGGVRRYFDVWGAGTTVTVSS
VL: DIQMTQSPSSLSASLGERVSLTCRASQDIGSNLNWLQLGPDGTIKRLIYATFSLDSGVPKRFSGSRSGSDYSLTISSLESEDFVDYYCQQYANFPPTFGGGTKLEIK
B3: mu-105 (antibody, V domains shown)
VH: EVQLQQSGPELVKPGASVKMSCKASGYTFTDYYMNWVKQSHGKSLEWIGYIYPNNGGTGYNQRFKGKATLTADKSSSTAYMELRSLTSEDSAVYYCARWGGTRLGYYAMDYWGQGTSVTVSS
VL: DIVMTQSQKFMSTSVGDRVSVTCKASQNVGTNVVWYQQKPGQSPKLLIYWASTRHTGVPDRFTGSGSGTDFTLTISNVQSEDLADYFCQQYSRYPYTFGGGTKLEIK
B4: mu-89 (antibody, V domains shown)
VH: EVQLVESGGDLVKPGGSLKLSCAASGFTFSSYGMSWVRQTPDKRLEWVATISSGGSYTYYPDSVKGRFTFSRDNAKNTLYLQMSSLKSEDTAMYYCVRQALRYHMDSWGQGTSVTVSS
VL: DIVMTQSQKFMSTSVGDRVSVTCKASQNVGTNVAWYQQKPGQSPKALIYSASYRYSGVPDRFTGSGSGTDFTLTISNVQSEDLADFFCQQYYSYPWTFGGGTKLEIK

These binders were tested against human GPRC5D protein (human) (UniProt Q9NZD1) (assay: FACS, subclone culture supernatant on NCI-H929 cells (medium alone: MFI 8242)).
human GPRC5D protein (human), sequence (Q9NZD1 whole entry): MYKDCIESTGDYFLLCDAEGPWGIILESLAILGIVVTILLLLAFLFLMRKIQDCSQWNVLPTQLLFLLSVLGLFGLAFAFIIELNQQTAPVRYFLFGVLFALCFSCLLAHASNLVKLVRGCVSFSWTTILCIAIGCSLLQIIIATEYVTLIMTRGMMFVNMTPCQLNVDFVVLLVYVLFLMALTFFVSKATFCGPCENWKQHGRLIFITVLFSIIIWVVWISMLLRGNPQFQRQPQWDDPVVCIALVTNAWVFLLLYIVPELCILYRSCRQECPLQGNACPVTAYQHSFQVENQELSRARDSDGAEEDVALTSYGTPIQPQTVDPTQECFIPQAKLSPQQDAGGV
B1 gave an MFI of 15700. B2 gave an MFI of 12800. In the case of B3, the MFI is reported as 13200. For B4, the MFI was 11900.
